# According to patent US20250002610A1 (Genmab, published 2025):
# T1: human DR4 (Death Receptor 4), cell surface expressed on human tumor cell lines (human, UniProt O00220 24-468)
# T1 construct: also called TNFRSF10A; TRAIL-R1
# T1 sequence: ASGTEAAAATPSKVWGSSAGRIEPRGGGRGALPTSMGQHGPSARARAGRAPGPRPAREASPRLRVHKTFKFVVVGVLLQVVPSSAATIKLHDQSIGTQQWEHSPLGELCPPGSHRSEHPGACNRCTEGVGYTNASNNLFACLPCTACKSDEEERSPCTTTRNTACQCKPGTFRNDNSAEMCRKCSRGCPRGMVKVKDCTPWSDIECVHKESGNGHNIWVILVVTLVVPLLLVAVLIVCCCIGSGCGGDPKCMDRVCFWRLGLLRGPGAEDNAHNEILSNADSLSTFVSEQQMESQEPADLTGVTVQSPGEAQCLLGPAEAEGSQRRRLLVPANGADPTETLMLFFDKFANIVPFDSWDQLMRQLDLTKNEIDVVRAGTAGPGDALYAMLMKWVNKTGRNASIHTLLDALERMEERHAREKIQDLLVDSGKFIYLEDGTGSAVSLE
# T2: cynomolgus monkey FAPα on Expi293F cells (cynomolgus monkey (Macaca fascicularis), UniProt Q12884 1-760 (human entry))
# T2 sequence: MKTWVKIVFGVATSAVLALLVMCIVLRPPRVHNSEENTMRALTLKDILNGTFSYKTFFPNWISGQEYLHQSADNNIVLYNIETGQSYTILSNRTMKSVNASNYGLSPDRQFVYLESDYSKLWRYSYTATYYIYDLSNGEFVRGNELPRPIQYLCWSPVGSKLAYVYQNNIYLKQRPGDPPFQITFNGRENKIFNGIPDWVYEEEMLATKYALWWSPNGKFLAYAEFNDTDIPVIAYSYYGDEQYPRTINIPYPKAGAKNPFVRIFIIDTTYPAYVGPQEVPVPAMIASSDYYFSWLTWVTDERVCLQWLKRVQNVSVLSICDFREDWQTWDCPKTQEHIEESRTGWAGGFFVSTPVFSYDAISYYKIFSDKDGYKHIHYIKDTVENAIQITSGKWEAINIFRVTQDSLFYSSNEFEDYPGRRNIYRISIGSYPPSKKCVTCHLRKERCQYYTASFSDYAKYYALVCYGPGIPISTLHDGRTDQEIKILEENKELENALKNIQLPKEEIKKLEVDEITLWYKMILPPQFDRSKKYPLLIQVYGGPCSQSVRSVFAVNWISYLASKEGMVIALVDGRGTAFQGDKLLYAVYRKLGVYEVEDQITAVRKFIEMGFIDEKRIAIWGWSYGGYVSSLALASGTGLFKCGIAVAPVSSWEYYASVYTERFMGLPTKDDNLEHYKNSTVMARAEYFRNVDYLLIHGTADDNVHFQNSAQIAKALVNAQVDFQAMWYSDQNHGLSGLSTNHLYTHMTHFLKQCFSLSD
# T3: mouse FAPα on Expi293F cells (mouse (Mus musculus), UniProt P97321 1-761)
# T3 sequence: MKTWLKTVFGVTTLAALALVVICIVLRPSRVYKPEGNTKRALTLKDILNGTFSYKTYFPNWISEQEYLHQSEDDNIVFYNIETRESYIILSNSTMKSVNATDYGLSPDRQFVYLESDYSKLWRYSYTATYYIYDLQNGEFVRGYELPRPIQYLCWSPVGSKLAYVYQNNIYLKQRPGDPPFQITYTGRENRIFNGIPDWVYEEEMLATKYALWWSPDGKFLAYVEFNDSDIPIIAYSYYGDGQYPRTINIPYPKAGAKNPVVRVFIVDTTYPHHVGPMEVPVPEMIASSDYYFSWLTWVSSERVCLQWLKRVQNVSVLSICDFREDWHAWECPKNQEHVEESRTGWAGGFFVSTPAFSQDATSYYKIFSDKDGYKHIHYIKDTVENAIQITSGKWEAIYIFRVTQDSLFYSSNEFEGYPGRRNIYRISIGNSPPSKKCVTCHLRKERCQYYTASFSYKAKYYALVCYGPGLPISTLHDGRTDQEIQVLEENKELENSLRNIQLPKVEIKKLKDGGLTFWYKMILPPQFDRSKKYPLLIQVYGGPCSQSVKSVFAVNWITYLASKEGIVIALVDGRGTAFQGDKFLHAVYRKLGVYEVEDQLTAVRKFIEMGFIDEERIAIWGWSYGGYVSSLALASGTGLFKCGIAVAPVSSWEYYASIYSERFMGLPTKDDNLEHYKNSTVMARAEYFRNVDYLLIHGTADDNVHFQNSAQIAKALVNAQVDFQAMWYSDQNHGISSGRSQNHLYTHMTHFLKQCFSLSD
# B1: BisG1-FAPα-FERL/DR4-FERR (bispecific antibody, human IgG1, kappa, lambda)
# heavy 1: EVQLLESGGGLVQPGGSPRLSCEASGFTFSSYALSWVRQAPGKGLEWVSAISGSGGGRYYADSVKGRFTISRDNSKNTLFLQMNSLRAEDTAVYYCAKEGYSSSGTYWDHWGQGTLVTVSSASTKGPSVFPLAPSSKSTSGGTAALGCLVKDYFPEPVTVSWNSGALTSGVHTFPAVLQSSGLYSLSSVVTVPSSSLGTQTYICNVNHKPSNTKVDKRVEPKSCDKTHTCPPCPAPEFERGPSVFLFPPKPKDTLMISRTPEVTCVVVDVSHEDPEVKFNWYVDGVEVHNAKTKPREEQYNSTYRVVSVLTVLHQDWLNGKEYKCKVSNKALPAPIEKTISKAKGQPREPQVYTLPPSREEMTKNQVSLTCLVKGFYPSDIAVEWESNGQPENNYKTTPPVLDSDGSFLLYSKLTVDKSRWQQGNVFSCSVMHEALHNHYTQKSLSLSPG
# light 1: AIQMTQSPSSVSASVGDRVTITCRASQGVSSWLAWYQQKPGRAPKLLIYVASTLQSGVPSRFSGSGSGTDFTLTINSLQPEDFATYYCQQANSFPPTFGQGTRLEMKRTVAAPSVFIFPPSDEQLKSGTASVVCLLNNFYPREAKVQWKVDNALQSGNSQESVTEQDSKDSTYSLSSTLTLSKADYEKHKVYACEVTHQGLSSPVTKSFNRGEC
# heavy 2: QVQLQESGPGLVKPSGTLSLTCAVSGGSISSYSWWSWIRQPPGKGLEWIGELYHSGSTNYNPSLKSRVTISVDKSKNQFSLKLRSVTAADTAVYYCVRGVATIDYWGQGTLVTVSSASTKGPSVFPLAPSSKSTSGGTAALGCLVKDYFPEPVTVSWNSGALTSGVHTFPAVLQSSGLYSLSSVVTVPSSSLGTQTYICNVNHKPSNTKVDKRVEPKSCDKTHTCPPCPAPEFERGPSVFLFPPKPKDTLMISRTPEVTCVVVDVSHEDPEVKFNWYVDGVEVHNAKTKPREEQYNSTYRVVSVLTVLHQDWLNGKEYKCKVSNKALPAPIEKTISKAKGQPREPQVYTLPPSREEMTKNQVSLTCLVKGFYPSDIAVEWESNGQPENNYKTTPPVLDSDGSFFLYSRLTVDKSRWQQGNVFSCSVMHEALHNHYTQKSLSLSPG
# light 2: QSALTQPPSASGSPGQSVTISCTGTSSDVGGYNFVSWYQQDPGKAPKLLIYEVTKRPSGVPDRFSGSKSGNTASLTVSGLQAEDEADYYCSSYAGSNNVMFGGGTKLTVLGQPKAAPSVTLFPPSSEELQANKATLVCLISDFYPGAVTVAWKADSSPVKAGVETTTPSKQSNNKYAASSYLSLTPEQWKSHRSYSCQVTHEGSTVEKTVAPTECS
# notes: Human IgG1 bispecific made by controlled Fab-arm exchange of IgG1-FAPα-FERL and IgG1-DR4-FERR; monovalent for FAPα and for DR4; also called GEN1057
# How the values were obtained:
# [1] = target: T1, human DR4 (Death Receptor 4), cell …; assay: flow cytometry, DLD-1 cells, average ± SEM
# [2] = target: T2, cynomolgus monkey FAPα on Expi293F cells; assay: flow cytometry, Expi293F cells expressing cynomolgus monkey FAPα, n = 2
# Method: (§1) Binding of BisG1-FAPα-FERL/DR4-FERR, BisG1-FAPα-FEAL/b12-FEAR and IgG1-FAPα-FERL to FAPα of species commonly used for nonclinical toxicology studies was assessed by flow cytometry using Expi293F cells transiently expressing FAPα from different animal species. IgG1-b12 was included as negative control.
# (§2) Expi293F cells expressing recombinant FAPα from various species (human, cynomolgus monkey, dog, pig, rat or mouse) were seeded (20,000 cells/well) in 96-Well round bottom plates (Greiner Bio-one, Cat #650101). Antibody dilutions were prepared using FACS buffer, consisting of PBS (Capricorn Scientific, Cat #PBS-10XA, diluted to 1×PBS in distilled water)+1% BSA (Roche, Cat #10735086001)+0.02% Sodium Azide (Bio-World, Cat #41920044-3). Plates were centrifuged, supernatant was removed, and cells were resuspended in 100 μL of antibody dilutions (concentration range 30-0.00017 μg/mL with three-fold serial dilutions using FACS buffer) of BisG1-FAPα-FERL/DR4-FERR, BisG1-FAPα-FEAL/b12-FEAR, IgG1-FAPα-FERL and IgG1-b12 and incubated for 30 min at 4° C. […] After 30 min incubation at 4° C., cells were washed with FACS buffer and resuspended in FACS buffer supplemented with TO-PRO-3 Iodide viability marker (Invitrogen, Cat #T3605, diluted 1:4,000). Antibody binding to viable cells (gMFI of PE on TO-PRO-3 negative cells) was analyzed by flow cytometry on a FACS Celesta and FACS_Diva software (first two experiments) or iQue® 3 and FlowJo software (last experiment). gMFI was determined and visualized using GraphPad Prism. Binding curves were analyzed using nonlinear regression analysis. The concentration (pg/mL) at which 50% of the maximal effect was observed (EC₅₀) was derived from the fitted curves.
# [3] = target: T3, mouse FAPα on Expi293F cells; assay: flow cytometry on Expi293F cells transiently expressing mouse FAPα, gMFI PE
# Method: as §1, §2
binder,measurement,setting,value
B1,EC50,[1],0.72 µg/mL
same,EC50,[2],0.36 µg/mL
same,binding result,[3],binds
